Source: US6137031, “DNA binding proteins that interact with NPR1” (Duke University, dated 2000)

B1: AHBP-1b (full-length, two-hybrid prey in pJG4-5) (other)
chain: MADTSPRTDVSTDDDTDHPDLGSEGALVNTAASDSSDRSKGKMDQKTLRRLAQNREAARKSRLRKKAYVQQLENSRLKLTQLEQELQRARQQGVFISGTGDQAHSTGGNGALAFDAEHSRWLEEKNKQMNELRSALNAHAGDSELRIIVDGVMAHYEELFRIKSNAAKNDVFHLLSGMWKTPAERCFLWLGGFRSSELLKLLANQLEPMTERQLMGINNLQQTSQQAEDALSQGMESLQQSLADTLSSGTLGSSSSGNVASYMGQMAMAMGKLGTLEGFIRQADNLRLQTLQQMIRVLTTRQSARALLAIHDYFSRLRALSSLWLARPRE

Tests used:
[1] = biological target: full-length tomato NPR1 homolog (tomato); assay: yeast two-hybrid, β-galactosidase reporter
[2] = biological target: full-length A. thaliana NPR1 (two-hybrid bait in pEG202) (Arabidopsis thaliana) (UniProt P93002); assay: yeast two-hybrid, β-galactosidase reporter
[3] = biological target: B1; assay: yeast two-hybrid, β-galactosidase activity
npr1-1 mutant NPR1 bait = npr1-1 mutant NPR1 bait (Arabidopsis thaliana, UniProt P93002); assay: yeast two-hybrid, β-galactosidase activity
npr1-2 mutant NPR1 bait = npr1-2 mutant NPR1 bait (Arabidopsis thaliana, UniProt P93002); assay: yeast two-hybrid, β-galactosidase activity
[4] = biological target: NPR1 1-432 (pEGNPR11-432) (Arabidopsis thaliana) (UniProt P93002); assay: yeast two-hybrid, β-galactosidase reporter
[5] = biological target: NPR1 178-593 (pEGNPR1178-593) (Arabidopsis thaliana) (UniProt P93002); assay: yeast two-hybrid, β-galactosidase reporter

Row | units of β-galactosidase activity [2] [units] | binding result (npr1-1 mutant NPR1 bait) | binding result (npr1-2 mutant NPR1 bait) | Molecule | further results
1 |  |  |  | NIF1 (NPR-1-Interacting Factor 1) | units of β-galactosidase activity [1]: 1290 units
2 | 7.6 |  |  | OBF5 (full-length, two-hybrid prey in pJG4-5) (from UniProt Q39163) | 
3 |  |  |  | NPR1 1-177 (pEGNPR11-177) (other) MDTTIDGFADSYEISSTSFVATDNTDSSIVYLAAEQVLTGPDVSALQLLSNSFESVFDSPDDFYSDAKLVLSDGREVSFHRCVLSARSSFFKSALAAAKKEKDSNNTAAVKLELKEIAKDYEVGFDSVVTVLAYVYSSRVRPPPKGVSECADENCCHVACRPAVDFMLEVLYLAFIF | binding result [3]: no binding
4 | 372 | no binding | no binding | TGA6 (full-length, two-hybrid prey in pJG4-5) (other) MADTSSRTDVSTDGDTDHRDLGSDRGHMHAAASDSSDRSKDKLDQKTLRRLAQNREAARKSRLRKKAYVQQLENSRLKLTQLEQELQRARQQGVFISSSGDQAHSTGGNGALAFDAEHSRWLEEKNRQMNELRSALNAHAGDTELRIIVDGVMAHYEELFRIKSNAAKNDVFHLLSGMWKTPAERCFLWLGGFRSSELLKLLANQLEPMTERQVMGINSLQQTSQQAEDALSQGMESLQQSLADTLSSGTLGSSSSDNVASYMGQMAMAMGQLGTLEGFIRQADNLRLQTLQQMLRVLTTRQSARALLAIHDYSSRLRALSSLWLARPRE | 
5 | 673 | no binding | no binding | B1 | units of β-galactosidase activity [4]: 522 units; units of β-galactosidase activity [5]: 17.6 units
